Laboratory results reported in patent publication US20160032014A1 (Amgen, published 2016).
Like-named read-outs stand apart in the source and are kept apart here.

Columns and labels:
[1] = target: T1, human PCSK9 (self-cleaved, mature, secreted PCSK9 comprising amino acids 31 to 692 of SEQ ID NO: 2) (human, UniProt Q8NBP7 31-692, biotinylated in the ELISAs); assay: SPR pH 5.5
T1 construct: Limits 31-692 are stated for the immunogen; the assays only say human PCSK9; also called huPCSK9; rhu PCSK9

[2] = target: T1, human PCSK9 (self-cleaved, mature, …); assay: SPR pH 7.4
[3] = target: T1, human PCSK9 (self-cleaved, mature, …); assay: solution equilibrium, BIAcore, pH 7.4
[4] = target: T1, human PCSK9 (self-cleaved, mature, …); assay: solution equilibrium, BIAcore
[5] = target: T1, human PCSK9 (self-cleaved, mature, …); assay: SPR pH 7.4; remark: listed apart in the source
[6] = target: T1, human PCSK9 (self-cleaved, mature, …); assay: solution equilibrium, BIAcore, pH 5.5
[7] = target: T1, human PCSK9 (self-cleaved, mature, …); assay: SPR pH 7.4; remark: listed apart in the source

B1: SS-15132 (antibody, V domains shown)
VH: EVQLVESGGGLVKPGGSLRLSCAASGFTFSSYSMNWVRQAPGKGLEWVSSISSSSSYHSYADSVKGRFTISRDNAKNSLYLQMNSLRAEDTAVYFCARDYDFHSAHYDAFDVWGQGTMVTVSS
VL: ESVLTQPPSVSGAPGQRVTISCTGSSSNIGAGYDVHWYQQLPGTAPKLLISGNSNRPSGVPDRFSGSKSGTSASLAITGLQAEDEADYYCQSYDSSLSGSVFGGGTKLTVLG
notes: 31H4 His variant: HC 68(58), 132(106), parental(113H)
estimated complex half life pH 5.5 [1]: 20 s | Kd [2]: 0.273 nM | koff [2]: 0.000338 s⁻¹ | kon [2]: 1.24e+06 M⁻¹ s⁻¹

B2: SS-15126 (antibody, V domains shown)
VH: EVQLVESGGGLVKPGGSLRLSCAASGFTFSSYSMNWVRQAPGKGLEWVSSISSSSHYISYADHVKGRFTISRDNAKNSLYLQMNSLRAEDTAVYFCARDYDFHSAYYDAFDVWGQGTMVTVSS
VL: ESVLTQPPSVSGAPGQRVTISCTGSSSNIGAGYDVHWYQQLPGTAPKLLISGNSNRPSGVPDRFSGSKSGTSASLAITGLQAEDEADYYCQSYDSSLSGSVFGGGTKLTVLG
notes: 31H4 His variant: HC 66(56), 73(63), parental(113H)
estimated complex half life pH 5.5 [1]: 100 s | Kd [2]: 0.257 nM | koff [2]: 0.000385 s⁻¹ | kon [2]: 1.5e+06 M⁻¹ s⁻¹

B3: SS-15136 (antibody, V domains shown)
VH: EVQLVESGGGLVKPGGSLRLSCAASGFTFSSYSMNWVRQAPGKGLEWVSSISSSSSYISHADSVKGRFTISRDNAKNSLYLQMNSLRAEDTAVYFCARDYDFHSAHYDAFDVWGQGTMVTVSS
VL: ESVLTQPPSVSGAPGQRVTISCTGSSSNIGAGYDVHWYQQLPGTAPKLLISGNSNRPSGVPDRFSGSKSGTSASLAITGLQAEDEADYYCQSYDSSLSGSVFGGGTKLTVLG
notes: 31H4 His variant: HC 70(60), 132(106), parental(113H)
estimated complex half life pH 5.5 [1]: 100 s | Kd [2]: 0.241 nM | koff [2]: 0.000298 s⁻¹ | kon [2]: 1.23e+06 M⁻¹ s⁻¹

B4: SS-15065 (antibody, V domains shown)
VH: EVQLVESGGGLVKPGGSLRLSCAASGFTFSSYSMNWVRQAPGKGLEWVSSISSSSSYISYADSVKGRFTISRDNAKNSLYLQMNSLRAEDTAVYFCARDYDFHSAHYDAFDVWGQGTMVTVSS
VL: ESVLTQPPSVSGAPGQRVTISCTGSSSNIGAGHDVHWYQQLPGTAPKLLISGNSNRPSGVPDRFSGSKSGTSASLAITGLQAEDEADYYCQSYDSSLSGSVFGGGTKLTVLG
notes: 31H4 His variant: LC 39(32), HC 132(106), parental(113H)
estimated complex half life pH 5.5 [1]: 100 s | Kd [2]: 0.274 nM | koff [2]: 0.000337 s⁻¹ | kon [2]: 1.23e+06 M⁻¹ s⁻¹

B5: SS-15087 (antibody, V domains shown)
VH: EVQLVESGGGLVKPGGSLRLSCAASGFTFSSYSMNWVRQAPGKGLEWVSSISSSSSYISYADSVKGRFTISRDNAKNSLYLQMNSLRAEDTAVYFCARDYDFHSAHYDAFDVWGQGTMVTVSS
VL: ESVLTQPPSVSGAPGQRVTISCTGSSSNIGAGYDVHWYQQLPGTAPKLLISGNSNRPSGVPDRFSGSKSGTSASLAITGLQAEDEADYYCQSYDSSLHGSVFGGGTKLTVLG
estimated complex half life pH 5.5 [1]: 100 s | Kd [2]: 0.229 nM | koff [2]: 0.000288 s⁻¹ | kon [2]: 1.26e+06 M⁻¹ s⁻¹

B6: SS-15114 (antibody, V domains shown)
VH: EVQLVESGGGLVKPGGSLRLSCAASGFTFSSHSMNWVRQAPGKGLEWVSSISSSSSYISYADSVKGRFTISRDNAKNSLYLQMNSLRAEDTAVYFCARDYDFHSAHYDAFDVWGQGTMVTVSS
VL: ESVLTQPPSVSGAPGQRVTISCTGSSSNIGAGYDVHWYQQLPGTAPKLLISGNSNRPSGVPDRFSGSKSGTSASLAITGLQAEDEADYYCQSYDSSLSGSVFGGGTKLTVLG
notes: 31H4 His variant: HC 39(32), 132(106), parental(113H)
estimated complex half life pH 5.5 [1]: 100 s | Kd [2]: 0.271 nM | koff [2]: 0.00015 s⁻¹ | kon [2]: 555000 M⁻¹ s⁻¹

B7: SS-15121 (antibody, V domains shown)
VH: EVQLVESGGGLVKPGGSLRLSCAASGFTFSSYSMNWVRQAPGKGLEWVSSISSHSSYISYADSVKGRFTISRDNAKNSLYLQMNSLRAEDTAVYFCARDYDFHSAHYDAFDVWGQGTMVTVSS
VL: ESVLTQPPSVSGAPGQRVTISCTGSSSNIGAGYDVHWYQQLPGTAPKLLISGNSNRPSGVPDRFSGSKSGTSASLAITGLQAEDEADYYCQSYDSSLSGSVFGGGTKLTVLG
notes: 31H4 His variant: HC 61(54), 132(106), parental(113H); parental LC
estimated complex half life pH 5.5 [1]: 20 s | Kd [2]: 0.383 nM | koff [2]: 0.000563 s⁻¹ | kon [2]: 1.47e+06 M⁻¹ s⁻¹

B8: SS-15124 (antibody, V domains shown)
VH: EVQLVESGGGLVKPGGSLRLSCAASGFTFSSYSMNWVRQAPGKGLEWVSSISSSSHYISHADSVKGRFTISRDNAKNSLYLQMNSLRAEDTAVYFCARDYDFHSAYYDAFDVWGQGTMVTVSS
VL: ESVLTQPPSVSGAPGQRVTISCTGSSSNIGAGYDVHWYQQLPGTAPKLLISGNSNRPSGVPDRFSGSKSGTSASLAITGLQAEDEADYYCQSYDSSLSGSVFGGGTKLTVLG
notes: 31H4 His variant: HC 66(56), 70(60), parental(113H)
estimated complex half life pH 5.5 [1]: 100 s | Kd [2]: 0.327 nM | koff [2]: 0.000525 s⁻¹ | kon [2]: 1.6e+06 M⁻¹ s⁻¹

B9: SS-15141 (antibody, V domains shown)
VH: EVQLVESGGGLVKPGGSLRLSCAASGFTFSSYSMNWVRQAPGKGLEWVSSISSSSSYISYADHVKGRFTISRDNAKNSLYLQMNSLRAEDTAVYFCARDYDFHSAHYDAFDVWGQGTMVTVSS
VL: ESVLTQPPSVSGAPGQRVTISCTGSSSNIGAGYDVHWYQQLPGTAPKLLISGNSNRPSGVPDRFSGSKSGTSASLAITGLQAEDEADYYCQSYDSSLSGSVFGGGTKLTVLG
notes: 31H4 His variant: HC 73(63), 132(106), parental(113H)
estimated complex half life pH 5.5 [1]: 100 s | Kd [2]: 0.185 nM | koff [2]: 0.000255 s⁻¹ | kon [2]: 1.38e+06 M⁻¹ s⁻¹

B10: SS-15139 (antibody, V domains shown)
VH: EVQLVESGGGLVKPGGSLRLSCAASGFTFSSYSMNWVRQAPGKGLEWVSSISSSSSYISYAHSVKGRFTISRDNAKNSLYLQMNSLRAEDTAVYFCARDYDFHSAHYDAFDVWGQGTMVTVSS
VL: ESVLTQPPSVSGAPGQRVTISCTGSSSNIGAGYDVHWYQQLPGTAPKLLISGNSNRPSGVPDRFSGSKSGTSASLAITGLQAEDEADYYCQSYDSSLSGSVFGGGTKLTVLG
notes: 31H4 His variant: HC 72(62), 132(106), parental(113H)
estimated complex half life pH 5.5 [1]: 100 s | Kd [2]: 0.19 nM | koff [2]: 0.000248 s⁻¹ | kon [2]: 1.31e+06 M⁻¹ s⁻¹

B11: SS-14835 (antibody, V domains shown)
VH: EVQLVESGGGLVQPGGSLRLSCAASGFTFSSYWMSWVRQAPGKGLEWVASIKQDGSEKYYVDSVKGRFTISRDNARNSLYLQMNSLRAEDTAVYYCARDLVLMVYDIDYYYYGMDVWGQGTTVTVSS
VL: DIVMTQSPLSLPVTPGEPASISCRSSQSLLHSGNGYNYLDWYLQKPGQSPQLLIYLGLNRASGVPDRFSGSGSGTDFTLKISRVEAEDVGVYYCMQAIHTPLTFGGGTKVEIKR
notes: HC WT, LC G33 insertion, S57L/L97I, Q98H
Kd [3]: 0.35 nM | KD ratio pH 5.5/pH 7.4 [4]: 8.9 | Kd [5]: 0.534 nM | koff [5]: 0.000163 s⁻¹ | kon [5]: 306000 M⁻¹ s⁻¹ | Kd [6]: 3.1 nM | Kd [7]: 0.534 nM | koff [7]: 0.000163 s⁻¹ | kon [7]: 306000 M⁻¹ s⁻¹

B12: SS-15196 (antibody, V domains shown)
VH: not shown
VL: DIVMTQSPLSLPVTPGEPASISCRSSQSLLHSGNGYNYLDWYLQKPGQSPQLLIYLGLNRASGVPDRFSGSGSGTDFTLKISRVEAEDVGVYYCMQAIHTPLTFGGGTKVEIKR
notes: HC I107M, LC G33 insertion, S57L, L97I, Q98H
Kd [3]: 0.056 nM | KD ratio pH 5.5/pH 7.4 [4]: 10.2 | Kd [5]: 0.134 nM | koff [5]: 5.06e-05 s⁻¹ | kon [5]: 377000 M⁻¹ s⁻¹ | Kd [6]: 0.57 nM | Kd [7]: 0.134 nM | koff [7]: 5.06e-05 s⁻¹ | kon [7]: 377000 M⁻¹ s⁻¹
